This passage reports stoichiometry N results from article doi:10.1101/2022.08.26.505453.

Several values for one entry are separate records, joined by “and”; a condition that tells them apart may be missing. Equal values may be shown once.

Assay [1] deals with MBP-Vpu fusion protein (His8 tag, maltose binding protein, 11-residue linker, full-length HIV-1 Vpu with Q36C) (HIV-1). As to the kind of experiment: SEC. For orientation: Size exclusion chromatography separates by hydrodynamic size, large species first.
For assay [2] the target is unchanged. The assay can be described thus: SEC. The source holds these as a separate data set.
For assay [3] the target is unchanged. The assay can be described thus: SDS-PAGE and western blot. In general terms: Immunoblotting shows a protein as a band on a membrane.
Assay [4] has the same target. As to the kind of experiment: negative staining electron microscopy.
Assay [5] has the same target. The assay can be described thus: SEC. This is another data set of the same source.

In the case of “MBP-Vpu fusion protein (His8 tag, maltose binding protein, 11-residue linker, full-length HIV-1 Vpu with Q36C)”, the stoichiometry N – broadly, the number of molecules, sites or subunits per partner or assembly – in assay [1] was 5 and 4; in assay [2], 5; in assay [3] it was 2 and 5; in assay [4], 5; in assay [5] it was 5 and 4.
